According to patent US20050106581A1, “Modified phosphodiesterase polypeptides with altered physiochemical properties” (priority 2002, published 2005):

Assays:
[1] = Qualitative investigation of aggregation by size exclusion chromatography (gel filtration); format: physicochemical; conditions: Superose 12, compared to the five isoforms of PDE4D (D3, D5-D8)
Procedure: The term “improved physicochemical properties” as used herein refers to a decrease in aggregate formation of polypeptides. For the purpose of definition, aggregate formation of the polypeptides of this invention is determined by quantitation of the fractions of a gelfiltration experiment in which aggregated PDE elutes, and of the fractions in which non-aggregated PDE elutes. The degree of aggregation is calculated in percent of non-aggregated PDE based on total (aggregated and non-aggregated) PDE. […] Chromatograms were recorded at 278 nm. […]
50 μl of Ni-NTA agarose purified isoform preparation was injected into a Superose 12 size exclusion column (type PC3.2/30; Amersham Pharmacia Biotech), equilibrated with 50 mM TrisHCl pH 7.7, 100 mM NaCl, 0.5 mM MgCl2 at a flow rate of 0.1 ml/min at 4° C. Chromatograms were recorded at 278 nm. […]

[2] = Quantification of aggregates and tubulin content (SDS-PAGE densitometry of SEC fractions); format: physicochemical; conditions: compared to isoforms D3 and D5 to D8
Text: In a preferred embodiment, the invention provides a polypeptide comprising a PDE polypeptide sequence, with an amino-terminal deletion wherein the proportion of non-aggregated PDE in the total protein preparation is from 55 %, preferably from 60%, more preferably from 65%, most perferably from 68% to 100%, preferably to 90%, more preferably to 80%, most preferably to 70% of total protein, as determined by the quantitation of eluted fractions from a gel filtration of the PDE fractions. Quantitation was performed as follows: Equal volume aliquots of fractions from Size Exclusion Chromatography, run as hereinbefore described, were analyzed by SDS-PAGE (one gel per run and isoform, FIG. 3). […]
To determine the decrease in tubulin association, the ratio of PDE molecules per tubulin molecules in the preparation of PDE polypeptide was calculated by quantitation of SDS-PAGE. […] The tubulin content of PDE preparations was determined as follows: Equal volume aliquots of fractions from SEC were analyzed by SDS-PAGE (one gel per run and isoform, FIG. 3). Optical densities of Coomassie stained PDE and tubulin bands were integrated as described hereinbefore for PDE aggregation quantitation. […]
Quantification of Aggregates and Tubulin Content
Equal volume aliquots of fractions from SEC were analyzed by SDS-PAGE (one gel per run and isoform, FIG. 3). […]

B1: DC: PDE4D polypeptide with amino-terminal deletion starting at the LF1 splice site, SEQ ID No. 2, 6xHis tagged (protein, listed as Homo sapiens)
chain: MFDVDNGTSAGRSPLDPMTSPGSGLILQANFVHSQRRESFLYRSDSDYDLSPKSMSRNSSIASDIHGDDLIVTPFAQVLASLRTVRNNFAALTNLQDRAPSKRSPMCNQPSINKATITEEAYQKLASETLEELDWCLDQLETLQTRHSVSEMASNKFKRMLNRELTHLSEMSRSGNQVSEFISNTFLDKQHEVEIPSPTQKEKEKKKRPMSQISGVKKLMHSSSLTNSSIPRFGVKTEQEDVLAKELEDVNKWGLHVFRIAELSGNRPLTVIMHTIFQERDLLKTFKIPVDTLITYLMTLEDHYHADVAYHNNIHAADVVQSTHVLLSTPALEAVFTDLEILAAIFASAIHDVDHPGVSNQFLINTNSELALMYNDSSVLENHHLAVGFKLLQEENCDIFQNLTKKQRQSLRKMVIDIVLATDMSKHMNLLADLKTMVETKKVTSSGVLLLDNYSDRIQVLQNMVHCADLSNPTKPLQLYRQWTDRIMEEFFRQGDRERERGMEISPMCDKHNASVEKSQVGFIDYIVHPLWETWADLVHPDAQDILDTLEDNREWYQSTIPQSPSPAPDDPEEGRQGQTEKFQFELTLEEDGESDTEKDSGSQVEEDTSCSDSKTLCTQDSESTEIPLDEQVEEEAVGEEEESQPEACVIDDRSPDTHHHHHH
modifications: 6xHis tag; PDE4D_core (1)..(664); LF1_splice_site (2)..(2); UCR1_site_-13 (22)..(22); UCR1_site (35)..(35); SER54 (39)..(39); SER579 (564)..(564)
**Q.** What does the source list for B1?
**A.** Aggregate formation (gel filtration elution profile) [1]: decrease in aggregation; Percentage of non-aggregated PDE4D based on total PDE4D protein [2]: highest percentage of non-aggregated PDE4D; Tubulin content (ratio between PDE4D and tubulin, total mass basis) [2]: significantly lower
